Consider two substances from publication PMC9461283.

As usually defined, the Kd is the equilibrium constant for the complex coming apart. A low value points to tighter binding.

The target in the assay is SARS-CoV-2 S receptor-binding domain (RBD) (SARS-CoV-2 (isolate Wuhan-Hu-1)) (UniProt P0DTC2). In words: SPR. A general note: Surface plasmon resonance follows binding to a sensor surface in real time, without labels.

The substance “rhesus macaca (Macaca mulatta) ACE2 ectodomain (ectoACE2), N-terminal 367 aa (from UniProt F7AH40 1-367) (domain or fragment)” registered a Kd of 0.068 µM.

On to “cynomolgus macaque (Macaca fascicularis) ACE2 ectodomain (ectoACE2), N-terminal 367 aa (domain or fragment)”, for which the Kd was 0.0692 µM.
